Data reported in the nanobody polyreactivity screen of Harvey et al. (2022).

Assay: yeast display, Sf9 membrane polyspecificity reagent, FACS + sequencing; frameworks hold sequencing errors
How it was run: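 In a synthetic yeast display library (Saccharomyces cerevisiae BJ5465), nanobody expression was induced with galactose for 36–48 hours. FACS gates were set low and high (top ~1%) using anti-HA fluorescence for expression and streptavidin fluorescence for binding of the Sf9 membrane reagent. Each polyreactivity label is drawn from the gate of origin.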

Row | Sequence | polyreactivity (PSR sort gate)
1 | QVQLVESGGGLVQAGGSLRLSCAASGRTFYKNAMGWYRQAPWKERELVAAISYGGGSTYYADSVKGRFTISRDNAKNTVYLQMNSLKPEDTAVYYCATQLPFRKPWHDYWGQGTQVTVSS | high polyreactivity
2 | QVQLVESGGGLVQAGGSLRLSCAASGFIFSRNAMGWYRQAPGKERELVAAISLRGGSTYYADSVKGRFTISRDNAKNTVYLQMNSLKPEDTAVYYCAADSVLTPYDYWVQGTQVTVSS | low polyreactivity
3 | QGQLVESGGGLVQAGGSLRLSCAASGFTFAGYARGWYRQAPGKERELVAAINRGGSTYYADSVKGRFTISRDNAKNTVYLQMNSLTPEDTAVYYCAARQEPGWYPDVWWEYDYWGQGTQVTVSS | low polyreactivity
4 | QVQLVESGGGLVQAGGSLRLTCAASGSIFLSYAMGWYRQPPGKDRELVAAISGGVNTYYADSVKGSFTISRDNAKNTVYLQMNSLKPEDTAVYYCYAVPHIYAEGTAYNYWGQGTQVTVSS | low polyreactivity
5 | QVQLVESGGGLVQEGGSLRLSCAASGSTFVINAMGWYRQAPGKERELVADIDYRGGSTNYSDSVKGRFTISRDNAKNTVYLQMNSLKPEVTAVYYCNKRYVIRRRGYDYWGQGTQVTVSS | low polyreactivity
6 | QVQLVESGGGLVQAGGSLRLSCAASGRIFRGYAMGWYIQAPGKEREFVADITRSGGSTYYADSVKGRFTISRDNAKNTVYLQMNSLKPEDTAVYYCAREWYQYSPYHRFDYWGQGTQVTVSS | high polyreactivity
7 | QVQLVESGGGLVKAGGSLRLSCAASGSIFRYYAMGWYRQAPGKERELVASITNGGSTNYADSVKGRFTISRDNAKNTVYLQMNSLKPEDTAVYYCAARYLYYTPPPRRYYYWAQGTQVTVSS | high polyreactivity
8 | QVQLVESGGGLVQAGGSLRLSCAASGRIFIRNDMGWYRQAPGKERELVAVITRSGGRTYYADSVKGRFTISRDNAKNTVYLQMHSLKPEDTAVYSCAKRQAFKQAPYEYWGQGTQVTVSS | low polyreactivity
9 | QVQLVESGGGLDQAGVRLRLSCAASGRIFISYAMGWYRQAPGNDTELVARISTRGGSTYYADSVKGRFTISRDNAKNTVYLQMNSLKPDDTAVYYCAADHHFCQYPGGGNRWYYYWGQGTHVTVSS | high polyreactivity
10 | QVQLVESGGGLDQAGGSLRLSCAASGSTFDSNTMGRSRQAPGKERELDAAITVSGGSTHYADSVKGRFTISRDNAKNTVYLQMNSLKPEDTAVYYCNRRSYGYGAFSGYDYWGQGTQVTVSS | low polyreactivity
11 | QVQLVESGGGLVQAGGSLRLSCAASGIIIVRYAMGWYRQAPGKERELVAAISRRGGSTYYADSVKGRFTISRDNAKNTVSLQMNSLKPEDTAVYYCAALLGDITGYDYWGQGTQVTVSS | high polyreactivity
12 | QVQLVESGGGLVQAGGSLRLSCAASGSIFVPYAMGWYRQAPGKEREFVAAMYSGGGNTYYADSVKGRFTISRDNAKNTVYLQMNSLKREDTAVYYCAAAYVYSSWSRYDYWGQGTQVTVSS | high polyreactivity
13 | QVQLVESGGGLVQAGRSLRLSCAASGTTFVIYDMGWSRQAPGKERDLVAGNSYSGGSTYYADSVKGRFTISRDNAKNTVYLQMNSLKPEDTAVYYCNAGVLVLLYAYLPSDLEYWGQGTQVTVSS | low polyreactivity
14 | QVQLVESGGRLVQAGGSLRLSCAASGFIFAYNAMGWYRQAPGKERELVAAISWSGGSTYYADSVKGRFTISRDNAKNTVYLQMNSLKPEDTAVSYCNKYIRYPFKRYGYWGQGTQVTVSS | high polyreactivity
15 | QVQLVESGGGLVQAGGSLRLSCAPSGLIFASYAMGWYRQAPGKERELVAAITSSGGSTYYADSVKGRFTISRDNAKNTVYLQMNSLKPEDTAVYYCAADIYTYNLFYHWRWLDYNYWGQGTQVTVSS | high polyreactivity
16 | QVQLVESGGGLVQAGGSLRLSCAASGFTFFVYAMGWYRQAPGKEREGVAVITSGGTTNYADSVKGRFTISRDNAKNTVYLQMNSLKPEDTAVYYCATDNGGIPKYVPYDYWGQGTQVTVSS | high polyreactivity
17 | QVQLVESGGGLVQAGGSLRISCAASGFTFWLYAMGWYRQAPGKERELVATISWSGGSTYYADSVKGRFTISRDNAKNTVYVQMNSLKPEDTAVYYCATRYRSYSVFGYGYWGQGTQVTVSS | high polyreactivity
18 | QVQLVESGGGLVQAGGSLRLSCAASGSTFFYYAMGWYRQAPGKERELVAAISRNGGSTYYADSVKGRFTISRDNAKNTVYLQMNSLKPEDTAVYYCNAYNLAGRYFDYWGQGTQVTVSS | high polyreactivity
19 | QVQLVESGGGLVQAGGSLRLSCAASGSIFPKYAKGWYRQAPGKEREMVAAINWRGVSTYYADSVKGRFTISRDNAKNTVYLQMNSLKPEDTAVYYCAADLLHTRQFGYWGQGTQVTVSS | low polyreactivity
20 | QVQLVESGGGLVQAGGSLRLSCAASGLIFQVYDMGWYRQAPGKERELVAAISSGSNTNYADSVKGRFTISRDNAKNTVYLQMNSLKPEDTAVYYCAASWGYGALTPDMGYWGQGTQVTVSS | low polyreactivity
21 | QVHLVESGGGLVQAGGSLRLSCAASGSTFVTYAMGWYTQAPGKEREFVAAISSTGTGRTYYADSVKGRFTISRDNAKNTVYLQMNSLKPEDTAVYYCAADLYGTYDYCGQGTQVTVSS | low polyreactivity
